The series is described as follows: soluble on expression in E. coli; label from the status in PepcDB or PDB records.
With “MENLKKYLEVAKIAALAGGQVLKENFGKVKKENIEEKGEKDFVSYVDKTSEERIKEVILKFFPDHEVVGEEMGAEGSGSEYRWFIDPLDGTKNYINGFPIFAVSVGLVKGEEPIVGAVYLPYFDKLYWGAKGLGAYVNGKRIKVKDNESLKHAGVVYGFPSRSRRDISIYLNIFKDVFYEVGSMRRPGAAAVDLCMVAEGIFDGMMEFEMKPWDITAGLVILKEAGGVYTLVGEPFGVSDIIAGNKALHDFILQVAKKYMEVAV”, the “soluble on expression in E. coli” value was “soluble”. The entry for “VQTGIDTLLPDYKKQLKGKRIGLITNPAGVNTSLKSSVDILYENPDIKLTALFGPEHGVRGDAQAGDEVGSYIDEKTGVPVYSLYGKTKKPTPEMLKNVDILMFDIQDVGTRFYTYIYTMAYAMEAAKENGIPFMVLDRPNPQGGNHIEGPILEPEYASFVGLYPIPLKHGMTIGELASLFNKEFSIDADLTVVKMKHWKRKMDFDDTRLPFVLPSPNMPTVESTFVYPATGLIEGTNISEGRGTTKPFELIGAPFIKSTELEETLNSLHLPGVTFRAASFTPTFSKHQGTLCHGVQLYVTDRDKFEAVKTGLSVIKTIHDLYPEDFEFLSTGSFDKLAGNGWIRTKIENGTSVENIINSYEKTLQQFSKTRKKYLIY” is “soluble”; for “MSLTTILDIAKLAGVAKSTVSRYLNGGSVSEPTRQKIERVIKETGYIPNAFAQSLKAKQTNFIGTIVPRLDSFAASRTVMGIDDELKSLGYQMLMSNTDQSVEREIETIYNLANQKIAGVILLATVITKEHLNAFREVGIPTLLVGQEHTEVPCLIHDDFKAGYEMGKHVLSKGHKRIAYLGVGEHDIAVGVKRKEGFKQAMAEHGPCEVAYFETSFSMQDSFRVSPKMIETYQPSALVCATDNIALGALKGAYSIGMNVPKDLSITGFGGYEVTGIIHPSLTTVNFHFKAAGKMAARKMIKLMNGEEVNHLTRMDVELIERESVDNEGHHHHHH” it is “soluble”.

Take “MVLMIVSGRSGSGKSVALRALEDMGFYCVDNLPVVLLPDLARTLADRQISAAVSIDVRNMPESPEIFEQAMNNLPGAFSPQLLFLDADRNTLIRRYSDTRRLHPLSSKNLSLESAIDKESDLLEPLRSRADLIVDTSEMSVHELAEMLRTRLLGKRERELTMVFESFGFKHGIPIDADYVFDVRFLPNPHWDPKLRPMTGLDKPVAAFLDRHTEVHNFIYQTRSYLELWLPMLETNNRSYLTVAIGCTGGKHRSVYIAEQLADYFRSRGKNVQSRHRTLEKRKT”: the “soluble on expression in E. coli” value is listed as “not soluble”.

Take “MGSDKIHHHHHHCAASWVHPLTGAHLLLFGTEQGIYSFDTNCMPDGNLSKIHHRRCSWMFVYADRLTAIQGNTPYVYRHDLVALTQKNLTLKMSKNLNKIPEKYVPKRLAITVRMPETRGALQCTVKRGQGAQANSLFLCCAVRKTVHLFQWYNPMNQFVLVRSEPIREDIRFPIRPFALINSRTSDFPELCIGVGQMSGSNEYQFNMINFCSSTNNSELSGDLNSSYGSLADDEMLEVGSMHQIDRDTLCFSFRNKVVLTDLQGFERPKPSIFTFNFHIEYLHVVDGTILAFHANGVQGRDLKSNLNTQDLCDVSRLYRVIGDDRVIILRSQP”: the “soluble on expression in E. coli” value is “not soluble”. Then “MESLAAKVVERLNRAESAAELRFCHDELARELRRCLAPEQMKQLAGDVVCVHEAILRRAFFLAERETMKRSVGIRPPAWCWYVMGSIGRREPTIWTDQDHGILFDCPEEEEAACYEFIRHMAAVGVDMLHEAGYPYCSGYVMATNKRWAQSVRGWEQQLSSYLDSGWPNDIRFLLIAMDMRPLYGETELAEEGRRMLFSAVAKRPPLLAVRPAWVRRYRVKVPNGGWRAPTVS”, with “not soluble”; and “MGSDKIHHHHHHMSSSQQIAKNARKAGNILKTISNEGRSDILYKIHDALKANAHAIEEANKIDLAVAKETGLADSLLKRLDLFKGDKFEVMLQGIKDVAELEDPVGKVKMARELDDGLTLYQVTAPVGVLLVIFESRPEVIANITALSIKSGNAAILKGGKESVNTFREMAKIVNDTIAQFQSETGVPVGSVQLIETRQDVSDLLDQDEYIDLVVPRGSNALVRKIKDTTKIPVLGHADGICSIYLDEDADLIKAKRISLDAKTNYPAGCNAMETLLINPKFSKWWEVLENLTLEGGVTIHATKDLKTAYFDKLNELGKLTEAIQCKTVDADEEQDFDKEFLSLDLAAKFVTSTESAIQHINTHSSRHTDAIVTENKANAEKFMKGVDSSGVYWNASTRFADGFRYGFGAEVGISTSKIHARGPVGLDGLVSYQYQIRGDGQVASDYLGAGGNKAFVHKDLDIKTVTL”, with “soluble”. Regarding “MMTLPYPYSSSARFYALRLLPGQEVFSQLHAFAQQQQLHAAWIAGCTGSLTDIALRYAGQEGTTLLNGTFEVISLNGTLEQSGEHLHLCVSDPHGTMLGGHMMPGCTVRTTLELVIGSLEELAFSRQPCALSGYDELHISPVK”, the “soluble on expression in E. coli” value is on record as “not soluble”. With “MGSDKIHHHHHHMSELPNSHATTLLAAPDTEIDVRETFGIDIDMKVPAFSRADERVPDRDDTYVFDPDTTLAILAGFAYNRRVMVQGYHGTGKSTHIEQVAARLNWPCIRINLDAHISRIDLVGRDAIVLRDGLQVTEFREGLLPWALQTPTALVFDEYDAGRPDVMFVIQRVLETEGKLTLLDQNRVIRPNKFFRLFATANTVGLGDTSGLYHGTQAINQGQMDRWNLVVALNYLPEATEVEIVTKKVPDLDPKIVTDMVRVANLTRQGFINGDISTVMSPRTVISWAQNSQIFNDVGFAFRLSFLNKCDETERVLVAEYYQRVFGKDLPESVAHRG”, the “soluble on expression in E. coli” value is recorded as “not soluble”.

As to “GSHMGDKEKETLFKDYLNLIVVKMTEWIGNLEKAEFDVFLERSTPPHSDSDGLLFLDGTKTCFQMFTQQVEVAAGTNQAKILVGVVERFSDLLTKRQKNWISKISEEIKKQINYNHKYDIDPESITPEDECPGGLVEYLIAVSNDQMKAADYAVAISSKYGKLVSKVYEKQITNHLEGTLDGFAEVAQCSSLGLITLMFDDLRKPYQEIFSKTWYMGSQAQQIADTLDEYLLDIKPQMNSVLFVNFIDNVIGETIIKFLTALSFEHSFKNKNNKFLEAMKRDFEIFYQLFVKVLDGNESKDTLITQNFTVMEFFMDLSCEPIDSILDIWQKYLEVYWDSRIDLLVGILKCRKDVSSSERKKIVQQATEMLHEYRRNMEANGVDREPTLMRRFVLEFEKQ”, the “soluble on expression in E. coli” value is “soluble”. The entry for “MGSDKIHHHHHHMQSNLVMFPIVEVVRPGTQVKETNSTDYEGAEQQFLLLLATEDLDDNLDRQAAIVSDFEQAVSRAINGAYKRECQDDLAHRFLQRILYRINRLNLFWFDDLRQYTNERSLYLSSCRNQIEAAWQKWELAQVDVAAIQKLDVKQALIDRADADLDPPLSAASRYIREEMSEAGYRQLLAIGSFDGLVEGSRLSRILGGAANEVQCTLVRVLLEEYGNGRLSRKHSTFFAQMLAEFGMNTTPEAYFDLVPWEVLACANHNFLLTERRRYYLRYSGGLTYFEVAGPAAYRNYLAAAQRLGLSNAAMGYWELHIREDERHGRWMLDDVALPLAQRYPDDAWELVLGYDQEKLMGDRAAEAVVRSTRQAESIN” is “not soluble”; for “MSLRPRMIDWLQARNIGVAVSQSYLAPVVDRAARQEQYRRMVQRSEPLISAYMGVRLPQPIDRIYVFDRAEWIEANLAAFQSLFAPLEELYDEVSARQGMVGILIGQLNSQLIGMQVGALIGFLARRVLGQYDLGLLSPDPDLRGALYFVEPNIARICAQLGLNGDDFRMWIALHETTHVFEFEAFPWVRAYFQDLLRQFIGRVNDQAAMLSVGIVRLIERLLQGQPIDHHWIELMLTPEQREIFTRMQALMSVVEGYSNHIMNAIGAQLLPSYPSIEARVRQRQLRRPLIEEAFNRITGMDLKLAQYQQGEAFINAVVAACGADFANRIWERPENLPTMDEIRAPHRWIARMSGEGHHHHHH” it is “soluble”; for “MGSDKIHHHHHHMKEVLEVLPKTMKQLVENCKQYDALEEIRVRIGRPLECIAHGEVFFYDYIVTADDAIYLLNKLSHFSIYTMEEELKRGYVTLRGGHRIGLAGKVITEKSTVKMIRDVSSFNIRIARQKIGIAEPLLPYLYESRWLNTMVIGPPQTGKTTLLRDVARCMSQGVSTSKIPSCKVGIVDERSEIAGCVKGIPQYDFGTRVDVLDACPKAEGMMMMIRSMSPDILIVDEIGRKEDSEAIMEAVHAGVQLFISAHGFSYDDVVKRPSLKAVLELGIFDRFVELSKARGPGTVMQVKDKYGKPVLPHRKAESVC” it is “not soluble”. As for “MSATLPCGMHKCQRLCHKGECLVDEPCKQPCTTPRADCGHPCMAPCHTSSPCPVTACKAKVELQ”, the “soluble on expression in E. coli” value was “soluble”. As to “MAMNNILGLFAQSPLKPLQKHSVKVTECSELLEPFFEATFKQDWDEAIKVREQIIDLERRADALKREIRLKLPRGLFLPVERTDLLELVTQLDKLANYSRDISGRIIGRQLVIPEAMQATFRKFLSRSLDSTRQVRKVLAELDKLLETGFRGRELKFVNNMILELDQIEDDTDQIQIVLRRTLRGLEQEFNPIDVIFLYKCIERVSILADQAQRVGSRIELMLAKALEHHHHHH”, the “soluble on expression in E. coli” value is recorded as “soluble”. As to “MSLVFVACGLNHKTAPIHVREKVALQPAMQDSLLSSLLDLPEVNEAAILSTCNRTEIYCDTNTPEVLGNWLAHEHQLSEELLSQFLYIHQGKEGIKHTLRVASGLDSMMIGEPQILGQMKQAYQHACRLGTVKTQLRPVFEYIFRASKRIRTRSGIGANPVSIAYAAVQLIGQLFKNYHSLSVFLIGSGETASLVAKYLHQHGVHRFLIASRTLENAQKLAETFGGKTLSIGDIPQYLPLADVVISATACPLPFINKSLVEHALEQRNHAPMFLLDLAVPRDIEGNVNELEQVHLYNVDDLQSMIEKGMDERRNAALQAEQLIESELDNYIRWHRSLRAKDVICDYRNQMHTLAQQELQRALKKISAGQNQQDVLNEFSMRLVNKLTHNPTIGLRQIAWDNREDLLDLARYLFDTTANQSLYEEISEGHHHHHH”, the “soluble on expression in E. coli” value is “not soluble”. Consider “MGSDKIHHHHHHMSHRKALLIHNGNAANKNIEKALGAVVPVLSHHLDEVIIKQTKKKDHAYHFCRSIDDSVDTVFILGGDGTIHQCINAISALERKPAVGILPGGTSNDFSRVLGIPQNLAKAAEALMAGKKTSVDVCQMNDRYFLNFWGIGLIAETSNQINETEKALLGKISYFTSALRTVSSAASFPMTLKIDGEEIKEEAVMLLVMNGQYIGTNRIPLPDASIEDGLLDVLICRNTNLTALRELMSMEQGSIDRFTGELSYVQASRIEIETDTAKKADMDGEVYTHTPAVIQVLPQHIDMLVPANE”, for which the “soluble on expression in E. coli” value was “not soluble”.

As to “MGSDKIHHHHHHMRAFVFPGQGSQYSGMAKDFSVYESSKEIFERSKKVLGFDITEIMNGDEETLKLTENAQPSIYITSYIAFLELEKRGILPDVVAGHSLGEYTALAVAGVYDFETGLYLVRKRGEYMSKALEPGKGTMAAVIGLNIETIEEVVNSIEGVYIANYNSHDQVVISGLKESVEKAMEILKEKGARRVVELMVSSPFHTPFLEYAREKMKEEVEKVDFKKPRWPIVMNSTAKPTENPEEIKRNIIEQITGPVLWKQSVDTMKKMGVTEFVEVGPKTVLKNLCRRMGANAKHFTEILSE”, the “soluble on expression in E. coli” value is recorded as “not soluble”. Then “MSLKKLDYHFHSHFSADSEELPRKHVTEAIAHGLEEICFTEHRDFYFPGMDFSLNLPEYFQEINRLQAEFKDKIKIKIGLEMGIDLRFKSEINQFIDSAPFDFVIASVHEIGDIEVYDGTEFYLQKIKEEAQREYLLACLDVVQNFENYNSFGHLDYVARYGPYTDKSIKFAENREILFEILRALASKEKALEINTRLFDDPKTEQFYSDLLINFKKLGGKFITLGTDSHIAKRDWLSIHKARTLIKKAGFHELATFSGMKIDKNKKSIKEGHHHHHH”, with “soluble”.

The values above are taken from the DeepSol protein solubility set.
